T1: IL-2/15R β and γ on Mo7e cells (UniProt P14784 27-551; P31785 23-369, limits assumed)
T1 sequence (looked up) 1: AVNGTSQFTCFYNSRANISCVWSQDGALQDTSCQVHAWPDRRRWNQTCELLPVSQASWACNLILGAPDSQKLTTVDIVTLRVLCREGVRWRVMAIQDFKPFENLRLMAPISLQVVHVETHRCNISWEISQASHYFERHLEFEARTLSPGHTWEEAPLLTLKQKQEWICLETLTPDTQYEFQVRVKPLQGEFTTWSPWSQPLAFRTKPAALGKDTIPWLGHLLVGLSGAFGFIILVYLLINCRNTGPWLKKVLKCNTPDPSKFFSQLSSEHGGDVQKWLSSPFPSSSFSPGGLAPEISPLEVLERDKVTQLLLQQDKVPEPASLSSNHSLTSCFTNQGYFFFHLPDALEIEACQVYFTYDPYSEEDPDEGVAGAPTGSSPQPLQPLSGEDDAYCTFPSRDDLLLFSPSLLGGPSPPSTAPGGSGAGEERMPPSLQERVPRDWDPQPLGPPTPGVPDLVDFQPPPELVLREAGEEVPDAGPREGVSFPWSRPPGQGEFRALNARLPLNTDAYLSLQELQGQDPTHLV
T1 sequence (looked up) 2: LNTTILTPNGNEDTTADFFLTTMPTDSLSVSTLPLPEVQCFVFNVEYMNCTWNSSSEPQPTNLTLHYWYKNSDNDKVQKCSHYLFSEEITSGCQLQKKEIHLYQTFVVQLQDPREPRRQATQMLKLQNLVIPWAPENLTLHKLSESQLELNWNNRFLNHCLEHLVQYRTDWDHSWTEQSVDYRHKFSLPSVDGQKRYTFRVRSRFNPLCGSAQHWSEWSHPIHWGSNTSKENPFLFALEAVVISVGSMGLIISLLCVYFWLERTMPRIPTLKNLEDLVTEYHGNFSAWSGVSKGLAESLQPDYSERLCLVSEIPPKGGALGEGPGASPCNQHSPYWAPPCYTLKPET

T2: IL2Rα-his (UniProt P01589 22-240, limits assumed)
T2 construct: Made in-house; also called interleukin-2 receptor alpha; CD25; not shown: his tag
T2 sequence (looked up): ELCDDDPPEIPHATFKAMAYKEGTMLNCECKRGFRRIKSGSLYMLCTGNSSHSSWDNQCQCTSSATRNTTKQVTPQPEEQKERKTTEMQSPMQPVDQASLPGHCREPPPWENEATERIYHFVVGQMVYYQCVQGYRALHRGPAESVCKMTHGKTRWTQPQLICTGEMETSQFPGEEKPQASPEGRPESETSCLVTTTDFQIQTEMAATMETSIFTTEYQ


How the values were obtained:
[1] = molecular target: T1, IL-2/15R β and γ on Mo7e cells; experiment: cell-based or functional assay
IL2Rα-his = molecular target: T2, IL2Rα-his; experiment: BLI (Octet RED96), receptor immobilised on sensor
Method: (§1) BLI was used to determine the affinity of a target protein for a receptor by a method with reference to (Estep, P et al., High throughput solution Based measurement of antibody-antigen affinity and epitope binning. MAbs, 2013.5 (2): p. 270-8). The receptor proteins IL-15Rα-his, IL2Rα-his, and IL2/15Rβ-Fc/Fc used in the experiment were each produced by the company of the present application, and both an IL-2 derivative without IL2Rα binding and an IL-2 complex without IL2Rα binding were prepared according to the description in Patent Publication CN111018961A. An IL-15(N72D)/Sushi-hIgG1Fc complex was prepared according to the literature (K.-p. Han et al./Cytokine 56 (2011) 804-810). A buffer was prepared according to the following formula: 10 mM HEPES, 150 mM NaCl, 3 mM EDTA, 0.1% BSA, and 0.05% tween20. Receptor proteins were each pre-immobilized in advance on a corresponding sensor. Then the steps of baseline, loading, baseline, association, and dissociation were conducted according to the established method (see Estep, P et al., High throughput solution Based measurement of antibody-antigen affinity and epitope binning. MAbs, 2013. 5 (2): p. 270-8). Data acquisition and analysis were conducted using the Fortebio Octet RED96 software Data acquisition 11.0 and Data analysis 11.0, respectively. Results are shown in Table 1 (the smaller the value, the stronger the affinity).

IL-15Rα-his = molecular target: T3, IL-15Rα-his (Homo sapiens (Human), UniProt Q13261 31-205, limits assumed); experiment: BLI (Octet RED96), receptor immobilised on sensor
T3 construct: also called interleukin-15 receptor alpha; not shown: his tag
Method: as §1

IL2/15Rβ-Fc/Fc = molecular target: T4, IL2/15Rβ-Fc/Fc (UniProt P14784 27-240); experiment: BLI (Octet RED96), receptor immobilised on sensor
T4 construct: Made in-house; The label 'Fc/Fc' is not explained; it is read here as one receptor-Fc chain paired with an Fc-only chain; also called IL2Rβ; CD122; not shown: Fc; second Fc chain implied by the label 'Fc/Fc'
Method: as §1

Sushi-hIgG4Fc = molecular target: T5, Sushi-hIgG4Fc; experiment: co-expression in HEK293, purification, SEC-HPLC
T5 construct: IL15Rα Sushi domain fused to human IgG4 Fc; also called Sushi-Fc
Method: The IL-2/15 chimera 1 was co-expressed with each of the Sushi-hIgG1Fc, Sushi-hIgG4Fc, and Sushi-mlgg2aa.1Fc, and heterodimer complexes could be generated during expression, which were respectively named as complex 1, complex 2, and complex 3 and all carried an Fc tag. Mabselect sure (Protein A, GE healthcare) was used for affinity purification, and a purification method was in accordance with instructions of a purification packing. Then further purification was conducted by gel filtration chromatography (GFC) (Superdex200 […], GE Healthcare) to obtain a protein with high purity, and the aggregate was removed. The purity analysis was conducted using a high-performance liquid chromatography (HPLC) molecular sieve column (SEC-HPLC), and the results are shown in FIGS. 1A-1C.

EC50 (nM), promotion of Mo7e cell proliferation [1] | binding result (IL2Rα-his) | binding result (IL-15Rα-his) | Kd (IL2/15Rβ-Fc/Fc) | Kd (IL-15Rα-his) | binding result (Sushi-hIgG4Fc) | Binder
0.319 nM | no binding (tested: 100 nM) | no binding (tested: 100 nM) | 0.512 nM |  |  | Complex 3 (heterodimer complex of IL-2/15 chimera 1 and Sushi-mIgG2aa.1Fc) (Fc fusion, also called IL-2/15 chimera 1-Sushi-Fc) chain 1: APTSSSTKKTQLQLEHLLLDLQMILNGIQSMHIDATLYTESDVHPSCKVTAMKCFLLELQVISLESGDASIHDTVENLIILANNSLSSNGNVTESGCKECEELEEKNIVEFLNRFITFAQSIISTLT chain 2: ITCPPPMSVEHADIWVKSYSLYSRERYICNSGFKRKAGTSSLTECVLNKATNVAHWTTPSLKCIREPRGPTIKPCPPCKCPAPNAEGAPSVFIFPPKIKDVLMISLSPIVTCVVVDVSEDDPDVQISWFVNNVEVHTAQTQTHREDYNSTLRVVSALPIQHQDWMSGKEFKCKVNNKQLPSSIERTISKPKGSVRAPQVYVLPPPEEEMTKKQVTLTCMVTDFMPEDIYVEWTNNGKTELNYKNTEPVLDSDGSYFMYSKLRVEKKNWVERNSYSCSVVHEGLHNHHTTKSFSRTPGK
2.25 nM | no binding (tested: 100 nM) |  | 973 nM | 3.89 nM |  | IL-2/15 chimera 1 (ligand, also called modified IL-2 molecule) APTSSSTKKTQLQLEHLLLDLQMILNGIQSMHIDATLYTESDVHPSCKVTAMKCFLLELQVISLESGDASIHDTVENLIILANNSLSSNGNVTESGCKECEELEEKNIVEFLNRFITFAQSIISTLT
 |  |  |  |  | binds | IL-2/15 chimera 2 (ligand, Chimera 1 with F at position 115 mutated back to W; position 115 corresponds to position 121 of natural IL-2) APTSSSTKKTQLQLEHLLLDLQMILNGIQSMHIDATLYTESDVHPSCKVTAMKCFLLELQVISLESGDASIHDTVENLIILANNSLSSNGNVTESGCKECEELEEKNIVEFLNRWITFAQSIISTLT

— patent publication US20230416326A1 (LETO LABORATORIES, published 2023)
